# From patent publication US20210322559A1
# Non-standard residues stand in square brackets, D forms with d. No end group written: not given here. Hyp = O=C(O)[C@@H]1C[C@@H](O)CN1
# B1: 6r, (PGOPPOGGPOOGOGOPGP-G3)2KG3K^CF (peptide)
# chain: PG[Hyp]PP[Hyp]GGP[Hyp][Hyp]G[Hyp]G[Hyp]PGPGGGKGGGPGP[Hyp]G[Hyp]G[Hyp][Hyp]PGG[Hyp]PP[Hyp]GP
# modifications: also: branched dimer: two arms grown from both amines of Lys22, residues 23-43 are the second arm written reversed, G3K with carboxyfluorescein on the C-terminal Lys attached at branch point Lys22
# B2: 9r, (PGOGPGPOPOGOGPOPGOOPGGOOPPG-G3)2KG3K^CF (peptide)
# chain: PG[Hyp]GPGP[Hyp]P[Hyp]G[Hyp]GP[Hyp]PG[Hyp][Hyp]PGG[Hyp][Hyp]PPGGGGKGGGGPP[Hyp][Hyp]GGP[Hyp][Hyp]GP[Hyp]PG[Hyp]G[Hyp]P[Hyp]PGPG[Hyp]GP
# modifications: also: branched dimer: two arms grown from both amines of Lys31, residues 32-61 are the second arm written reversed, G3K with carboxyfluorescein on the C-terminal Lys attached at branch point Lys31
# B3: 5r, (PPOGGPOOGOGOPGP-G3)2KG3K^CF (peptide)
# chain: PP[Hyp]GGP[Hyp][Hyp]G[Hyp]G[Hyp]PGPGGGKGGGPGP[Hyp]G[Hyp]G[Hyp][Hyp]PGG[Hyp]PP
# modifications: also: branched dimer: two arms grown from both amines of Lys19, residues 20-37 are the second arm written reversed, G3K with carboxyfluorescein on the C-terminal Lys attached at branch point Lys19
# Target: porcine gelatin (denatured collagen) (porcine)
# Test: fluorescence in crosslinked gelatin film after 6 washes at 4 °C (FIG. 6A)
row,percent removal after washes at 4 °C [%],Binder
1,> 95,B1
2,> 95,B2
3,> 95,B3

# Target: porcine gelatin (denatured collagen) (porcine)
# Test: fluorescence; CHP 15 µM premixed into 10% porcine gelatin, 5 washes at 4 °C (FIG. 6B)
row,percent removal after washes at 4 °C [%],Binder
1,> 95,B1
2,> 95,B2
3,> 95,B3
